Measured values from patent publication US20130236459A1 (MERRIMACK PHARMACEUTICALS, published 2013).
Read-outs that look alike come from different tables or passages of the source.

Legend:
Assay in all cases: cell-based or functional assay
[1] = molecular target: T1, IGF-1R (receptor for insulin-like growth factor 1), endogenous on human tumor cell lines (human, UniProt P08069 31-1367)
[2] = molecular target: T2, ErbB3 (HER3), endogenous on human tumor cell lines (human, UniProt P21860 20-1342)
T2 sequence (P21860 20-1342 limits assumed): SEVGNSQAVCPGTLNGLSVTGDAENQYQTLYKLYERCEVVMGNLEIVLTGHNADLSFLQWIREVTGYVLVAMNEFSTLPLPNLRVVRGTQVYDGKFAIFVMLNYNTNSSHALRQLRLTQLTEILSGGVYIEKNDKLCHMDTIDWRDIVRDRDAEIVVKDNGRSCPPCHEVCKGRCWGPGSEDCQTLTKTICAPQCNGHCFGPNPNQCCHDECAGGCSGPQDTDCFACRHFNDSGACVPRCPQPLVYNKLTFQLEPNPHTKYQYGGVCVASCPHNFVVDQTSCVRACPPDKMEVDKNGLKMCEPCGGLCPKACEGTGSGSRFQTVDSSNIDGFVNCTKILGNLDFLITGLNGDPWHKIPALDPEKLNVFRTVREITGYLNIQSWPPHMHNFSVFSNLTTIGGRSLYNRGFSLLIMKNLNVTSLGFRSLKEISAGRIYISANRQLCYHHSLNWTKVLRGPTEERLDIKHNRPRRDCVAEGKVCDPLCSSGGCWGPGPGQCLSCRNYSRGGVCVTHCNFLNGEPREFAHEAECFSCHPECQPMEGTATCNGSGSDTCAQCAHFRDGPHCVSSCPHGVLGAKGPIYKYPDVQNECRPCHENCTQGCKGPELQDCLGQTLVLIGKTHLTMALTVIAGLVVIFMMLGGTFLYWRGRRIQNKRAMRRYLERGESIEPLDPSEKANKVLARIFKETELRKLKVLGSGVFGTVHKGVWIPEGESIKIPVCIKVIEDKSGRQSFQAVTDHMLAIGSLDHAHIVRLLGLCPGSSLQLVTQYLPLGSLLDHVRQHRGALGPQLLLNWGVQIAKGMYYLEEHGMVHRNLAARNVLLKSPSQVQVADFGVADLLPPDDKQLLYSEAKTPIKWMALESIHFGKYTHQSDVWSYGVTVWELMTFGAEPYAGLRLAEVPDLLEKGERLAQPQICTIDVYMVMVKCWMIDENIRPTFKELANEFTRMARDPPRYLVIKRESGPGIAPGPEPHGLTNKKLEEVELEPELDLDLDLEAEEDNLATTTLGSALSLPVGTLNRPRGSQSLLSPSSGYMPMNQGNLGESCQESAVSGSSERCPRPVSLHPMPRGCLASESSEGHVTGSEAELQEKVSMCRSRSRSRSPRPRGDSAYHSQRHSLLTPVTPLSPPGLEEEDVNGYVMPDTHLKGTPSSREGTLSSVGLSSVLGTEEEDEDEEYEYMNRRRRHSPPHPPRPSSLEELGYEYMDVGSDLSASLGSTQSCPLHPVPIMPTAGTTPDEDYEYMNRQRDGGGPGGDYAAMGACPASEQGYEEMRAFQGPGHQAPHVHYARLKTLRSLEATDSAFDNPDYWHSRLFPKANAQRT

[3] = molecular target: T1, IGF-1R (receptor for insulin-like …); remark: listed apart in the source
[4] = molecular target: T2, ErbB3 (HER3), endogenous on human tumor …; remark: listed apart in the source

T1 sequence (P08069 31-1367): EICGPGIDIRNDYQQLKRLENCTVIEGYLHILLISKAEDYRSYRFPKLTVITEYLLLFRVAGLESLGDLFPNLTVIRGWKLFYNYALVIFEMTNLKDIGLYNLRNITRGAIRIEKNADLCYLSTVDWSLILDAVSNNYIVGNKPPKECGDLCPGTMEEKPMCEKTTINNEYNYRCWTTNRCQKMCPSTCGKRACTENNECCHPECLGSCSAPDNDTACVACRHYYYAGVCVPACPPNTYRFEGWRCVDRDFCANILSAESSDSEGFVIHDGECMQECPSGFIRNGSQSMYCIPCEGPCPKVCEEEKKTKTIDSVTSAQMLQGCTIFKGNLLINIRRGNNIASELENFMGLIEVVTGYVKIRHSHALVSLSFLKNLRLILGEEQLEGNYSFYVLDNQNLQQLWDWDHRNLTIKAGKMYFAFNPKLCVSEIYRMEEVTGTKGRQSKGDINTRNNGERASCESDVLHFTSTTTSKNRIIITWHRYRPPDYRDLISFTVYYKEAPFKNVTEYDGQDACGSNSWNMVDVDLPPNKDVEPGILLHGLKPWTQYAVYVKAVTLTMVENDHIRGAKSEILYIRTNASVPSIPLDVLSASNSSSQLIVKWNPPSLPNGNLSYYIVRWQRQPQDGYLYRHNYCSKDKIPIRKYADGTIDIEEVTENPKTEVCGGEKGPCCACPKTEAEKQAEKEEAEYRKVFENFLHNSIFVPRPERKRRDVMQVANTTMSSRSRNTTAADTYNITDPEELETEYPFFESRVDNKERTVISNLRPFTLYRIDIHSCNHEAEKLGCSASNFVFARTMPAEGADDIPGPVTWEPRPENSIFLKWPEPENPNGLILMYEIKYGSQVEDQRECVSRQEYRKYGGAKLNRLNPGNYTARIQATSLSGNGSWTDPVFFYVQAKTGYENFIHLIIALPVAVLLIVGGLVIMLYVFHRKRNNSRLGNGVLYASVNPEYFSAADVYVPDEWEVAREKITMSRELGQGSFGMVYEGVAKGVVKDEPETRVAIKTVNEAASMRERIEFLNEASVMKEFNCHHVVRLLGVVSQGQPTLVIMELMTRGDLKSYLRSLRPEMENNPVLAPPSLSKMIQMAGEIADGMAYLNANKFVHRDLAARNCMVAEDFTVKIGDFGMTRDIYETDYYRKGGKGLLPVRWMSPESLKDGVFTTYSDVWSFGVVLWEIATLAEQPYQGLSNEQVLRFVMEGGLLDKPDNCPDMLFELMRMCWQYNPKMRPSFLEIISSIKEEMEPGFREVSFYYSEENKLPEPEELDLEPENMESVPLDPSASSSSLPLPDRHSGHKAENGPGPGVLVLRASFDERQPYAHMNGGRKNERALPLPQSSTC

| Binder | pIGF1R % Inhibition (BxPC-3) [1] [%] | pIGF1R IC50 (BxPC-3) [1] | pErbB3 % Inhibition (BxPC-3) [2] [%] | pErbB3 IC50 (BxPC-3) [2] | pIGF1R IC50 (BxPC-3) [3] | pErbB3 IC50 (BxPC-3) [4] |
| --- | --- | --- | --- | --- | --- | --- |
| B60-G1-M78 (bispecific antibody, human IgG1, lambda) heavy: not shown light: SSELTQDPAVSVALGQTVRITCQGDSLRSYYASWYQQKPGQAPVLVIYGKNNRPSGIPDRFSGSSSGNTASLTITGAQAEDEADYYCNSRDWPGNQWVFGGGTKVTVLGQPKAAPSVTLFPPSSEELQANKATLVCLVSDFYPGAVTVAWKADGSPVKVGVETTKPSKQSNNKYAASSYLSLTPEQWKSHRSYSCRVTHEGSTVEKTVAPAECS | 86 | 3.5e-09 M (inferred) | 115 | 8e-11 M (inferred) | 1.4e-09 M (inferred) | 1e-11 M (inferred) |
| M27-G1-M78 (bispecific antibody, human IgG1, lambda) heavy: not shown light: SSELTQDPAVSVALGQTVRITCQGDSLRSYYASWYQQKPGQAPVLVIYGKNNRPSGIPDRFSGSSSGNTASLTITGAQAEDEADYYCNSRDTPGDQWVFGGGTKVTVLGQPKAAPSVTLFPPSSEELQANKATLVCLVSDFYPGAVTVAWKADGSPVKVGVETTKPSKQSNNKYAASSYLSLTPEQWKSHRSYSCRVTHEGSTVEKTVAPAECS | 87 | 1.4e-09 M (inferred) | 107 | 1.2e-10 M (inferred) | – | – |
| M7-G1-P4 (bispecific antibody, human IgG1, lambda) heavy: not shown light: SSELTQDPAVSVALGQTVRITCQGDSLRSYYASWYQQKPGQAPVLVIYGKNNRPSGIPDRFSGSSSGNTASLTITGAQAEDEADYYCNSRDTPGNKWVFGGGTKVTVIGQPKAAPSVTLFPPSSEELQANKATLVCLVSDFYPGAVTVAWKADGSPVKVGVETTKPSKQSNNKYAASSYLSLTPEQWKSHRSYSCRVTHEGSTVEKTVAPAECS | 93 | 2.4e-09 M (inferred) | 109 | 2.4e-11 M (inferred) | 2.4e-09 M (inferred) | 2.4e-11 M (inferred) |
| M27-G1-P4 (bispecific antibody, human IgG1, lambda) heavy: not shown light: SSELTQDPAVSVALGQTVRITCQGDSLRSYYASWYQQKPGQAPVLVIYGKNNRPSGIPDRFSGSSSGNTASLTITGAQAEDEADYYCNSRDTPGDQWVFGGGTKVTVLGQPKAAPSVTLFPPSSEELQANKATLVCLVSDFYPGAVTVAWKADGSPVKVGVETTKPSKQSNNKYAASSYLSLTPEQWKSHRSYSCRVTHEGSTVEKTVAPAECS | 88 | 3e-09 M (inferred) | 106 | 1e-10 M (inferred) | – | – |
| M27/M7-G1-M78 (bispecific antibody, human IgG1, lambda) heavy: not shown light: SSELTQDPAVSVALGQTVRITCQGDSLRSYYASWYQQKPGQAPVLVIYGKNNRPSGIPDRFSGSSSGNTASLTITGAQAEDEADYYCNSRDTPGNKWVFGGGTKVTVIGQPKAAPSVTLFPPSSEELQANKATLVCLVSDFYPGAVTVAWKADGSPVKVGVETTKPSKQSNNKYAASSYLSLTPEQWKSHRSYSCRVTHEGSTVEKTVAPAECS | 91 | 1e-09 M (inferred) | 140 | 1.1e-10 M (inferred) | – | – |
| M27/M7-G1-M57 (bispecific antibody, human IgG1, lambda) heavy: not shown light: SSELTQDPAVSVALGQTVRITCQGDSLRSYYASWYQQKPGQAPVLVIYGKNNRPSGIPDRFSGSSSGNTASLTITGAQAEDEADYYCNSRDTPGNKWVFGGGTKVTVIGQPKAAPSVTLFPPSSEELQANKATLVCLVSDFYPGAVTVAWKADGSPVKVGVETTKPSKQSNNKYAASSYLSLTPEQWKSHRSYSCRVTHEGSTVEKTVAPAECS | 91 | 7.5e-09 M (inferred) | 179 | 1.5e-10 M (inferred) | – | – |
| M7-G1-M57 (bispecific antibody, human IgG1, lambda) heavy: not shown light: SSELTQDPAVSVALGQTVRITCQGDSLRSYYASWYQQKPGQAPVLVIYGKNNRPSGIPDRFSGSSSGNTASLTITGAQAEDEADYYCNSRDTPGNKWVFGGGTKVTVIGQPKAAPSVTLFPPSSEELQANKATLVCLVSDFYPGAVTVAWKADGSPVKVGVETTKPSKQSNNKYAASSYLSLTPEQWKSHRSYSCRVTHEGSTVEKTVAPAECS | 82 | 2.1e-08 M (inferred) | 124 | 5.2e-11 M (inferred) | 2.1e-08 M (inferred) | 5.2e-11 M (inferred) |
| M27-G1-M57 (bispecific antibody, human IgG1, lambda) heavy: not shown light: SSELTQDPAVSVALGQTVRITCQGDSLRSYYASWYQQKPGQAPVLVIYGKNNRPSGIPDRFSGSSSGNTASLTITGAQAEDEADYYCNSRDTPGDQWVFGGGTKVTVLGQPKAAPSVTLFPPSSEELQANKATLVCLVSDFYPGAVTVAWKADGSPVKVGVETTKPSKQSNNKYAASSYLSLTPEQWKSHRSYSCRVTHEGSTVEKTVAPAECS | 83 | 8.1e-09 M (inferred) | 88 | 3.1e-10 M (inferred) | – | – |
| M27/M7-G1-P4 (bispecific antibody, human IgG1, lambda) heavy: not shown light: SSELTQDPAVSVALGQTVRITCQGDSLRSYYASWYQQKPGQAPVLVIYGKNNRPSGIPDRFSGSSSGNTASLTITGAQAEDEADYYCNSRDTPGNKWVFGGGTKVTVIGQPKAAPSVTLFPPSSEELQANKATLVCLVSDFYPGAVTVAWKADGSPVKVGVETTKPSKQSNNKYAASSYLSLTPEQWKSHRSYSCRVTHEGSTVEKTVAPAECS | 99 | 1.3e-08 M (inferred) | 111 | 4e-11 M (inferred) | – | – |
| M57-G1-M1.3 (bispecific antibody, human IgG1, kappa) heavy: not shown light: DIQLTQSPSSLSASLGDRVTITCRASQGISSYLAWYQQKPGKAPKLLIYARSTRQSGVPSRFSGSGSGTEFTLTISSLQPEDSATYYCQQYWTWPLTFGGGTKVEIKRTVAAPSVFIFPPSDEQLKSGTASVVCLLNNFYPREAKVQWKVDNALQSGNSQESVTEQDSKDSTYSLSSTLTLSKADYEKHKVYACEVTHQGLSSPVTKSFNRGEC | 94 | 4.1e-10 M (inferred) | 99 | 1.4e-10 M (inferred) | – | – |
| M78-G1-M1.3 (bispecific antibody, human IgG1, kappa) heavy: not shown light: DIQMTQSPSSLSASLGDRVTITCRASQGISSYLAWYQQKPGKAPKLLIYASSTRQSGVPSRFSGSGSGTDFTLTISSLQPEDSGTYYCQQYWAFPLTFGGGTKVEIKRTVAAPSVFIFPPSDEQLKSGTASVVCLLNNFYPREAKVQWKVDNALQSGNSQESVTEQDSKDSTYSLSSTLTLSKADYEKHKVYACEVTHQGLSSPVTKSFNRGEC | 97 | 5e-10 M (inferred) | 99 | 1.4e-10 M (inferred) | – | – |
| M78-G1-C8 (bispecific antibody, human IgG1, kappa) heavy: not shown light: DIQMTQSPSSLSASLGDRVTITCRASQGISSYLAWYQQKPGKAPKLLIYASSTRQSGVPSRFSGSGSGTDFTLTISSLQPEDSGTYYCQQYWAFPLTFGGGTKVEIKRTVAAPSVFIFPPSDEQLKSGTASVVCLLNNFYPREAKVQWKVDNALQSGNSQESVTEQDSKDSTYSLSSTLTLSKADYEKHKVYACEVTHQGLSSPVTKSFNRGEC | 96 | 6.8e-10 M (inferred) | 98 | 2.3e-10 M (inferred) | – | – |
| M57-G1-P6 (bispecific antibody, human IgG1, kappa) heavy: not shown light: DIQLTQSPSSLSASLGDRVTITCRASQGISSYLAWYQQKPGKAPKLLIYARSTRQSGVPSRFSGSGSGTEFTLTISSLQPEDSATYYCQQYWTWPLTFGGGTKVEIKRTVAAPSVFIFPPSDEQLKSGTASVVCLLNNFYPREAKVQWKVDNALQSGNSQESVTEQDSKDSTYSLSSTLTLSKADYEKHKVYACEVTHQGLSSPVTKSFNRGEC | 92 | 2.5e-10 M (inferred) | 98 | 7.9e-11 M (inferred) | – | – |
| M57-G1-C8 (bispecific antibody, human IgG1, kappa) heavy: not shown light: DIQLTQSPSSLSASLGDRVTITCRASQGISSYLAWYQQKPGKAPKLLIYARSTRQSGVPSRFSGSGSGTEFTLTISSLQPEDSATYYCQQYWTWPLTFGGGTKVEIKRTVAAPSVFIFPPSDEQLKSGTASVVCLLNNFYPREAKVQWKVDNALQSGNSQESVTEQDSKDSTYSLSSTLTLSKADYEKHKVYACEVTHQGLSSPVTKSFNRGEC | 93 | 2.5e-10 M (inferred) | 98 | 6.5e-11 M (inferred) | – | – |
| P4-G1-P6 (bispecific antibody, human IgG1, kappa) heavy: not shown light: DIQMTQSPSSLSASLGDRVTITCRASQGISSYLAWYQQKPGKAPKLLIYAKSTLQSGVPSRFSGSGSGTDFTLTISSLQPEDSATYYCQQYWTFPLTFGGGTKVEIKRTVAAPSVFIFPPSDEQLKSGTASVVCLLNNFYPREAKVQWKVDNALQSGNSQESVTEQDSKDSTYSLSSTLTLSKADYEKHKVYACEVTHQGLSSPVTKSFNRGEC | 91 | 1.6e-10 M (inferred) | 95 | 3.9e-11 M (inferred) | – | – |
| M78-G1-P6 (bispecific antibody, human IgG1, kappa) heavy: not shown light: DIQMTQSPSSLSASLGDRVTITCRASQGISSYLAWYQQKPGKAPKLLIYASSTRQSGVPSRFSGSGSGTDFTLTISSLQPEDSGTYYCQQYWAFPLTFGGGTKVEIKRTVAAPSVFIFPPSDEQLKSGTASVVCLLNNFYPREAKVQWKVDNALQSGNSQESVTEQDSKDSTYSLSSTLTLSKADYEKHKVYACEVTHQGLSSPVTKSFNRGEC | 95 | 4.2e-10 M (inferred) | 100 | 1.4e-10 M (inferred) | – | – |
